Patent US20110287512

Assays:
[1] = tested on: ZFN7264 linker TGGGGSQKP (synthetic); experiment: cell_activity; conditions: yeast, partner ZFN7263; host on 0-bp gap = 1.00
[2] = tested on: ZFN7264 linker 1e (synthetic); experiment: cell_activity; conditions: yeast, partner ZFN7263; host on 0-bp gap = 1.00
[3] = tested on: ZFN7264 linker TSRPRPKP (synthetic); experiment: cell_activity; conditions: yeast, partner ZFN7263; host on 0-bp gap = 1.00
[4] = tested on: ZFN7264 (host, center linker TGSQKP) (synthetic); experiment: cell_activity; conditions: yeast, partner ZFN7263; host on 0-bp gap = 1.00; host data same as Table 9
[5] = tested on: ZFN7264 linker TGLPKPKP (synthetic); experiment: cell_activity; conditions: yeast, partner ZFN7263; host on 0-bp gap = 1.00
[6] = tested on: ZFP8196 linker TPGLHRPKP (artificial)
[7] = tested on: ZFP8196 linker TEPRAKPPKP (artificial)
[8] = tested on: ZFP8196 linker TVSPAPCRSKP (artificial)
[9] = tested on: ZFP8196 linker TGYSIPRPKP (artificial)
[10] = tested on: ZFP8196 linker TPDAPKPKP (artificial)
[11] = tested on: ZFP8196 linker 1c (artificial)
[12] = tested on: ZFP8196 linker TGEGGKP (artificial)
[13] = tested on: ZFP8196 linker TSSPRSNAKP (artificial)
[14] = tested on: ZFP8196 linker TCPRPPTRKP (artificial)
[15] = tested on: ZFP8196 linker LRQKDERP (artificial)
[16] = tested on: ZFP8196 linker TPDRPISTCKP (artificial)
[17] = tested on: ZFP8196 linker 1d (artificial)
[18] = tested on: ZFP8196 (host, center linker TGEKP) (artificial)
[19] = tested on: ZFP8196 linker TPSHTPRPKP (artificial)
[20] = tested on: ZFP8196 linker TGGGGSQKP (artificial)
[21] = tested on: ZFP8196 linker 1f (artificial)
[22] = tested on: ZFP8196 linker TSPRLPAPKP (artificial)
[23] = tested on: ZFP7264 linker TGGGGSQKP (artificial)
[24] = tested on: ZFP7264 linker TLPLPRPKP (artificial)
[25] = tested on: ZFP7264 linker TSRPRPKP (artificial)
[26] = tested on: ZFP7264 linker TKHGTPKHREDKP (artificial)
[27] = tested on: ZFP7264 linker TLPPCFRPKP (artificial)
[28] = tested on: ZFP7264 linker TGEGGKP (artificial)
[29] = tested on: ZFP7264 linker LRQKDERP (artificial)
[30] = tested on: ZFP7264 linker 1e (artificial)
[31] = tested on: ZFP7264 linker TGLPKPKP (artificial)
[32] = tested on: ZFP7264 (host, center linker TGSQKP) (artificial)
[33] = tested on: ZFN7263 linker TPNRCPPTKP (synthetic); experiment: cell_activity; conditions: yeast, partner ZFN7264; host on 0-bp gap = 1.00
[34] = tested on: ZFN7263 linker TQRPQIPPKP (synthetic); experiment: cell_activity; conditions: yeast, partner ZFN7264; host on 0-bp gap = 1.00
[35] = tested on: ZFN7263 linker TYPRPLLAKP (synthetic); experiment: cell_activity; conditions: yeast, partner ZFN7264; host on 0-bp gap = 1.00
[36] = tested on: ZFN7263 (host, center linker TGSQKP) (synthetic); experiment: cell_activity; conditions: yeast, partner ZFN7264; host on 0-bp gap = 1.00
[37] = tested on: ZFN7263 linker TGGGGSQKP (synthetic); experiment: cell_activity; conditions: yeast, partner ZFN7264; host on 0-bp gap = 1.00
[38] = tested on: ZFN7263 linker TPRPPIPKP (synthetic); experiment: cell_activity; conditions: yeast, partner ZFN7264; host on 0-bp gap = 1.00
[39] = tested on: ZFN7263 linker TPLCQRPMKQKP (synthetic); experiment: cell_activity; conditions: yeast, partner ZFN7264; host on 0-bp gap = 1.00
[40] = tested on: ZFN7264 linker TSRPRPKP (artificial); experiment: cell_activity; conditions: yeast, paired with 7263 ZFN
[41] = tested on: ZFN7264 linker 1e center linker F2-F3 TGSQKP replaced by TVPRPTPPKP (artificial); experiment: cell_activity; conditions: normalized yeast MEL-1 score
[42] = tested on: ZFN7264 (host) (artificial); experiment: cell_activity; conditions: yeast, paired with 7263 ZFN
[43] = tested on: ZFN7264 linker TGGGGSQKP (artificial); experiment: cell_activity; conditions: yeast, paired with 7263 ZFN
[44] = tested on: ZFN7264 linker TGLPKPKP (artificial); experiment: cell_activity; conditions: yeast, paired with 7263 ZFN

Which results are given for “AAAGCGTAGCTCCG (double strand) [7264 yeast half-site gap TA]”?
activity (normalized MEL-1) [1]: 0.09; activity (normalized MEL-1) [2]: 0.09; activity (normalized MEL-1) [3]: 0.07; activity (normalized MEL-1) [4]: 0.02; activity (normalized MEL-1) [5]: 0.08

What does the source list for “TTAGATAAACTGACCAAAAGGCTATC (double strand) [8196 target gap AC]”?
binding signal (normalized ELISA) [6]: 0; binding signal (normalized ELISA) [7]: 0.01; binding signal (normalized ELISA) [8]: 0; binding signal (normalized ELISA) [9]: 0; binding signal (normalized ELISA) [10]: 0; binding signal (normalized ELISA) [11]: 0; binding signal (normalized ELISA) [12]: 0; binding signal (normalized ELISA) [13]: 0; binding signal (normalized ELISA) [14]: 0; binding signal (normalized ELISA) [15]: 0; binding signal (normalized ELISA) [16]: 0.01; binding signal (normalized ELISA) [17]: 0.01; binding signal (normalized ELISA) [18]: 0; binding signal (normalized ELISA) [19]: 0.01; binding signal (normalized ELISA) [20]: 0; binding signal (normalized ELISA) [21]: 0; binding signal (normalized ELISA) [22]: 0

How did the binding signal (normalized ELISA) [23] turn out when “TTAGTTAAAGCGCTGCTCCGAATATC (double strand) [7264 target gap CT]” was run?
Its binding signal (normalized ELISA) is 0.07.

And the binding signal (normalized ELISA) [24]?
Its binding signal (normalized ELISA) is 0.03.

And the binding signal (normalized ELISA) [25]?
The binding signal (normalized ELISA) was 0.03.

And the binding signal (normalized ELISA) [26]?
The binding signal (normalized ELISA) was 0.

What about the binding signal (normalized ELISA) [27] of the same sequence?
Its binding signal (normalized ELISA) is 0.05.

What about the binding signal (normalized ELISA) [28] of the same sequence?
The binding signal (normalized ELISA) was 0.03.

And the binding signal (normalized ELISA) [29]?
The binding signal (normalized ELISA) was 0.02.

What about the binding signal (normalized ELISA) [30] of the same sequence?
Its binding signal (normalized ELISA) is 0.06.

What about the binding signal (normalized ELISA) [31] of the same sequence?
Its binding signal (normalized ELISA) is 0.02.

What about the binding signal (normalized ELISA) [32] of the same sequence?
Its binding signal (normalized ELISA) is 0.

For “ACTCTGATTGGAAG (double strand) [7263 yeast half-site gap AT]”, which activity (normalized MEL-1) [33] is on record?
Its activity (normalized MEL-1) is 0.03.

What about the activity (normalized MEL-1) [34] of the same sequence?
Its activity (normalized MEL-1) is 0.02.

And the activity (normalized MEL-1) [35]?
Its activity (normalized MEL-1) is 0.05.

What about the activity (normalized MEL-1) [36] of the same sequence?
The activity (normalized MEL-1) was 0.02.

And the activity (normalized MEL-1) [37]?
Its activity (normalized MEL-1) is 0.02.

What about the activity (normalized MEL-1) [38] of the same sequence?
The activity (normalized MEL-1) was 0.03.

And the activity (normalized MEL-1) [39]?
Its activity (normalized MEL-1) is 0.01.

How did the activity (normalized MEL-1) [40] turn out when “AAAGCGTGCTCCG (double strand) [7264 yeast half-site gap T]” was run?
Its activity (normalized MEL-1) is 3.38.

And the activity [41]?
The activity was 2.34.

What about the activity (normalized MEL-1) [42] of the same sequence?
Its activity (normalized MEL-1) is 0.06.

And the activity (normalized MEL-1) [43]?
The activity (normalized MEL-1) was 0.34.

And the activity (normalized MEL-1) [44]?
Its activity (normalized MEL-1) is 0.79.

What does the source list for “ACTCTGCTTGGAAG (double strand) [7263 yeast half-site gap CT]”?
activity (normalized MEL-1) [33]: 0.06; activity (normalized MEL-1) [34]: 0.03; activity (normalized MEL-1) [35]: 0.05; activity (normalized MEL-1) [36]: 0.08; activity (normalized MEL-1) [37]: 0.04; activity (normalized MEL-1) [38]: 0.04; activity (normalized MEL-1) [39]: 0.03

Which binding signal (normalized ELISA) [6] does the source give for “TTAGATAAACTGTGCAAAAGGCTATC (double strand) [8196 target gap TG]” here?
Its binding signal (normalized ELISA) is 0.01.

And the binding signal (normalized ELISA) [7]?
The binding signal (normalized ELISA) was 0.01.

What about the binding signal (normalized ELISA) [8] of the same sequence?
The binding signal (normalized ELISA) was 0.01.

What about the binding signal (normalized ELISA) [9] of the same sequence?
The binding signal (normalized ELISA) was 0.01.

And the binding signal (normalized ELISA) [10]?
Its binding signal (normalized ELISA) is 0.01.

And the binding signal (normalized ELISA) [11]?
Its binding signal (normalized ELISA) is 0.

And the binding signal (normalized ELISA) [12]?
The binding signal (normalized ELISA) was 0.

What about the binding signal (normalized ELISA) [13] of the same sequence?
The binding signal (normalized ELISA) was 0.01.

What about the binding signal (normalized ELISA) [14] of the same sequence?
Its binding signal (normalized ELISA) is 0.01.

And the binding signal (normalized ELISA) [15]?
The binding signal (normalized ELISA) was 0.

What about the binding signal (normalized ELISA) [16] of the same sequence?
Its binding signal (normalized ELISA) is 0.02.

What about the binding signal (normalized ELISA) [17] of the same sequence?
Its binding signal (normalized ELISA) is 0.01.

What about the binding signal (normalized ELISA) [18] of the same sequence?
The binding signal (normalized ELISA) was 0.

What about the binding signal (normalized ELISA) [19] of the same sequence?
Its binding signal (normalized ELISA) is 0.01.

What about the binding signal (normalized ELISA) [20] of the same sequence?
The binding signal (normalized ELISA) was 0.

And the binding signal (normalized ELISA) [21]?
The binding signal (normalized ELISA) was 0.01.

And the binding signal (normalized ELISA) [22]?
Its binding signal (normalized ELISA) is 0.01.

What does the source list for “AAAGCGGCTCCG (double strand) [7264 yeast half-site 0-bp gap]”?
activity (normalized MEL-1) [40]: 0.08; activity ([41]; with invariant 7263 ZFN partner): 0.08; activity (normalized MEL-1) [42]: 1; activity (normalized MEL-1) [43]: 0.28; activity (normalized MEL-1) [44]: 0.04

Which activity (normalized MEL-1) [1] does the source give for “AAAGCGCTGCTCCG (double strand) [7264 yeast half-site gap CT]” here?
The activity (normalized MEL-1) was 0.15.

What about the activity (normalized MEL-1) [2] of the same sequence?
Its activity (normalized MEL-1) is 0.11.

What about the activity (normalized MEL-1) [3] of the same sequence?
The activity (normalized MEL-1) was 0.1.

And the activity (normalized MEL-1) [4]?
Its activity (normalized MEL-1) is 0.08.

And the activity (normalized MEL-1) [5]?
Its activity (normalized MEL-1) is 0.09.

Which results are given for “TTAGTTAAAGCGTAGCTCCGAATATC (double strand) [7264 target gap TA]”?
binding signal (normalized ELISA) [23]: 0.03; binding signal (normalized ELISA) [24]: 0.03; binding signal (normalized ELISA) [25]: 0.03; binding signal (normalized ELISA) [26]: 0; binding signal (normalized ELISA) [27]: 0.06; binding signal (normalized ELISA) [28]: 0.02; binding signal (normalized ELISA) [29]: 0.02; binding signal (normalized ELISA) [30]: 0.05; binding signal (normalized ELISA) [31]: 0.02; binding signal (normalized ELISA) [32]: 0
